PMC9631798 (2022)
Changes are numbered by the printed parent chain. Names may count otherwise. “And” between values parts separate entries of the source, which are not always exact repeats. Identical values can stand only once.

B1: F5111.2 Antibody (N297A) (antibody, V domains shown)
VH: QLQLQESGPGLVKPSQTLSLTCTVSGGSISSGGYYWSWIRQHPGKGLEWIGYIYKSGSAYYSPSLKSRVTISVDTSKNQFSLKLSSVTAADTAVYYCARTPTVTGDWFDPWGRGTLVTVSS
VL: NFMLTQPHSVSESPGKTVTISCTRSSGSIASNYVQWYQQRPGSSPTTVIYEDNQRPSGVPDRFSGSIDSSSNSASLTISGLKTEDEADYYCQTYDSIDVYFGGGTKLTVL
B2: F5111 antibody (antibody, V domains shown)
VH: B1 VH with K55Y, A59T, S62N
VL: B1 VL with T93S, I97S, D98N, Y100V
B3: Biotinylated human IL-2Rβ extracellular domain (residues 1-214) (receptor)
chain: AVNGTSQFTCFYNSRANISCVWSQDGALQDTSCQVHAWPDRRRWNQTCELLPVSQASWACNLILGAPDSQKLTTVDIVTLRVLCREGVRWRVMAIQDFKPFENLRLMAPISLQVVHVETHRCNISWEISQASHYFERHLEFEARTLSPGHTWEEAPLLTLKQKQEWICLETLTPDTQYEFQVRVKPLQGEFTTWSPWSQPLAFRTKPAALGKDT
modifications: biotin on the biotin acceptor peptide (BirA ligase)
B4: Biotinylated human IL-2Rα extracellular domain (residues 1-217) (receptor)
chain: ELCDDDPPEIPHATFKAMAYKEGTMLNCECKRGFRRIKSGSLYMLCTGNSSHSSWDNQCQCTSSATRNTTKQVTPQPEEQKERKTTEMQSPMQPVDQASLPGHCREPPPWENEATERIYHFVVGQMVYYQCVQGYRALHRGPAESVCKMTHGKTRWTQPQLICTGEMETSQFPGEEKPQASPEGRPESETSCLVTTTDFQIQTEMAATMETSIFTTE
modifications: biotin on the biotin acceptor peptide (BirA ligase)

Experiments:
Biotinylated human IL-2 [1] = biological target: T1, Biotinylated human IL-2 (human, UniProt P60568 21-153, biotin on the biotin acceptor peptide (BirA ligase)); test: BLI
Biotinylated human IL-2 [2] = biological target: T1, Biotinylated human IL-2; test: BLI; Fig S1E
[3] = biological target: yeast-displayed hIL-2 (residues 1-133) (human, UniProt P60568 21-153); test: FACS; yeast surface display
F5111 IC LN15 = F5111 IC LN15 (human, UniProt P60568 21-153); test: BLI
F5111 IC LN25 = F5111 IC LN25 (human, UniProt P60568 21-153); test: BLI
F5111.2 IC LN35 = F5111.2 IC LN35 (human, UniProt P60568 21-153); test: BLI
F5111 IC LN35 = F5111 IC LN35 (human, UniProt P60568 21-153); test: BLI
[4] = biological target: Control (FITC-E2) IC LN35 (human, UniProt P60568 21-153); test: BLI
[5] = biological target: hIL-2/F5111.2 complex (1:1 molar ratio) (human, UniProt P60568 21-153); test: BLI
[6] = biological target: hIL-2/F5111 complex (1:1 molar ratio) (human, UniProt P60568 21-153); test: BLI

T1 sequence (P60568 21-153): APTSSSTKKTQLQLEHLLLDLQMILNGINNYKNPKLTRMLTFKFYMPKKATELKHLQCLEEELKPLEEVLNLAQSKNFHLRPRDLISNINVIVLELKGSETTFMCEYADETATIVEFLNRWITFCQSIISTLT
yeast-displayed hIL-2 (residues 1-133), sequence (P60568 21-153): as above

Row | Binder | Kd (Biotinylated human IL-2 [1]) [nM] | Kd (Biotinylated human IL-2 [2]) [nM] | Kd [3] [nM] | Kd (F5111 IC LN15) [nM] | Kd (F5111 IC LN25) [nM] | Kd (F5111.2 IC LN35) [nM] | Kd (F5111 IC LN35) | Kd [4] | Kd [5] [nM] | Kd [6] [nM]
1 | B1 | 4.9 |  |  |  |  |  |  |  |  | 
2 | B2 | 2.7 | 2.1 | 0.42 |  |  |  |  |  |  | 
3 | B3 |  |  |  | 210 | > 2000 | > 2000 | > 2000 nM | 4.1 nM and 4.4 nM | > 2000 | > 2000
4 | B4 |  |  |  | 7.5 |  | 2.4 | 3.2 nM and 3 nM | 2.5 nM and 3.4 nM | 68 | 18
